Laboratory results reported in patent US8916686B2, “TDF-related compounds and analogs thereof” (Thrasos Innovation, Inc., priority 2004, dated 2014).
Read-outs that look alike come from different tables or passages of the source.

Tests used:
ALK-3 = ALK-3 (Homo sapiens, UniProt P36894); test: Radioligand receptor binding assay (competition with 125I-labeled TDF-1)
Excerpt: General protocol: These assays are based on competition between ^125I-labeled TDF-1 (BMP-7 or OP-1) and candidate TDFRP compounds or unlabeled TDF-1 for binding to respective receptors (ALK-3, ALK-6 or BMPR-2). In brief, the procedure involves immobilization of receptor on 96 well Removawell plates, blocking the wells with 3% BSA in PBS and subsequently washing the wells. Increasing concentrations of unlabeled TDF-1 or TDFRP compounds or control (unlabeled TDF-1) prepared in binding buffer are then added. Incubate plate for 1 hour at room temperature, and then add a fixed amount of ^125I-labeled TDF-1 (250,000 to 350,000 cpm) to the wells and further incubate in cold (4° C.) for 20 hours. Aspirate the contents of the wells and wash the wells four times with a wash buffer, and count the receptor bound ^125I-labeled TDF-1 in an auto gamma counter.
Using this procedure, TDFRP compound binding to select ALK receptors are assessed. Accordingly, TDFRP compounds that preferentially bind select ALK receptors can be identified. For example, TDFRP compounds that preferentially bind to ALK-3 receptor compared with binding to other ALK receptors, e.g., ALK-6 (FIG. 1 and FIG. 11).

HK-2 cells = test: Apoptosis detection using Annexin V immunostaining after cisplatin; assay type: cell-based, human; conditions: 10 uM cisplatin; 500 uM compound prophylactically or therapeutically
Protocol: Apoptosis and cell viability are quantified using AnnexinV-FITC and propidium iodide staining of HK-2 cells following cisplatin treatment Immortalized PTEC-derived HK-2 cells (ATCC number CRL-2190) are cultured in serum-free keratinocyte medium (GIBCO number 17005-042) supplemented with EGF and BPE for 48 hours (Ryan et al. 1994 Kidney Int 45:48-57). Medium is aspirated and cells are washed with PBS and incubated in the dark for 15 min at room temperature with 10 μl of media binding agent and 1.25 μl of FITC conjugated AnnexinV. Propidium iodide (10 μl) is added, and samples are analyzed immediately. Quantification of Annexin V-FITC and propidium iodide signals is performed by fluorescence microscopy (Axiovert 135; Carl Zeiss). Phase contrast images are observed using transmitted light. Apoptotic cells show cytoplasmic staining and viable cells remain unstained (FIG. 14A-FIG. 14D).

[1] = tested on: rat osteosarcoma (17/2.8) cells; test: Rat osteosarcoma (ROS) cell-based alkaline phosphatase assay; conditions: 0.02-200 uM, 2 days; relative to BMP-7 standard
Protocol: BMP interactions with Type I and Type II receptors can induce alkaline phosphatase activity, a marker for osteoblast activity, in ROS cells. An assay procedure as described earlier (Maliakal, J.C., Asahina, I., Hauschka, P. V., and Sampath, T. K. (1994) Growth factors 11, 227-234) was used to determine the biological activities of TDFRP compounds. In a typical experiment, rat osteosarcoma (17/2.8) cells are plated in 96 well plates (3.0×10^4 cells/well) and incubated overnight at 37 C in 5-6% CO2 incubator. The next day, healthy and confluent cells are treated with increasing concentrations of BMP-7 standard (1-10,000 ng/ml) served as positive control or TDFRP compounds (0.02-200 uM) prepared in medium containing 1% FBS and incubated for 2 days at 37 C in 5-6% CO2 incubator. The cellular content of alkaline phosphatase activity is determined by the method of Reddi and Huggins (Reddi, A. H., and Huggins, C. B (1972) Proc. Natl. Acad. Sci. USA 69, 1601-1605). Enzyme estimations are performed in 96 well plates. Following removal of culture medium, cells are washed with pre-warmed PBS (150 ul) and incubated in 100 ul of pre-warmed 1% Triton X-100 for 30 minutes at 37 C. Plates are centrifuged for 10 minutes at full speed, and recovered samples (15 ul) are assayed for enzyme activity by adding 90 ul p-nitrophenyl phosphate (Sigma) as a substrate in 0.05 M glycine-NaOH buffer, pH 9.3 and incubating for 20 minutes at 37 C. The reaction is stopped by adding 75 ul of 0.2 N NaOH/well and absorbance at 405/490 nm is measured on a Dynatech MR 700 plate reader. Results are expressed as relative activities compared to a BMP-7 standard.

ALK-3, sequence (P36894 24-532, species assumed): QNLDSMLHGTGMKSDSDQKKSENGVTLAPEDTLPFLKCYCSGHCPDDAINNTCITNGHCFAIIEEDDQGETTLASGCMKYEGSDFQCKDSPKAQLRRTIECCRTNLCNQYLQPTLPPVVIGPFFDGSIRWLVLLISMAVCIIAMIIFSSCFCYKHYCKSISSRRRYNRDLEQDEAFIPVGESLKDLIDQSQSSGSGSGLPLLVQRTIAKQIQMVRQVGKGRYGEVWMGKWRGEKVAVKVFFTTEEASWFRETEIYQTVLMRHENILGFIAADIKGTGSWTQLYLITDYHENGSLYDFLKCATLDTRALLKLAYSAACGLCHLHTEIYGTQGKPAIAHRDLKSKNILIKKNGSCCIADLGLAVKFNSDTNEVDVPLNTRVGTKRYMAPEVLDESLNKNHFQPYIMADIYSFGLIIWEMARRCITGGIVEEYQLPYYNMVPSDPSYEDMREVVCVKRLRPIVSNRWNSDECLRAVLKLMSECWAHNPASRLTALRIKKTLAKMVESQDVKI

differential binding to Type I receptors (ALK-3 compared to ALK-6) (ALK-3): selectively binds to ALK-3
Sequence: CYFDDSSNVLCKKYRS [SEQ ID NO 45]
differential binding to Type I receptors (ALK-3 compared to ALK-6) (ALK-3; listed as SEQ ID NO:45): binds preferentially to BMP type I receptors (ALK3)
cisplatin-induced apoptosis (HK-2 cells): inhibits cisplatin-induced apoptosis
induction of alkaline phosphatase activity [1]: did not induce alkaline phosphatase activity
